{
  "source": "patent US20020119521A1",
  "experiment_in_all_cases": "cell-based or functional assay",
  "key": {"[1]": {"molecular_target": "Full length MmRXR (mouse Mus musculus RXR alpha) (Mus musculus) (UniProt P28700)"}, "[2]": {"molecular_target": "VP16AD-MmRXRDEF chimeric polypeptide (Mus musculus)"}, "[3]": {"molecular_target": "VP16AD-CfUSPDEF chimeric polypeptide (Choristoneura fumiferana)"}, "[4]": {"molecular_target": "VP16AD-CfEcRCDEF chimeric polypeptide (Choristoneura fumiferana)"}, "[5]": {"molecular_target": "VP16AD-DmEcRCDEF chimeric polypeptide (Drosophila melanogaster)"}, "[6]": {"molecular_target": "T1, B42AD:MmRXR-DEF fusion (Mus musculus)", "T1 sequence": "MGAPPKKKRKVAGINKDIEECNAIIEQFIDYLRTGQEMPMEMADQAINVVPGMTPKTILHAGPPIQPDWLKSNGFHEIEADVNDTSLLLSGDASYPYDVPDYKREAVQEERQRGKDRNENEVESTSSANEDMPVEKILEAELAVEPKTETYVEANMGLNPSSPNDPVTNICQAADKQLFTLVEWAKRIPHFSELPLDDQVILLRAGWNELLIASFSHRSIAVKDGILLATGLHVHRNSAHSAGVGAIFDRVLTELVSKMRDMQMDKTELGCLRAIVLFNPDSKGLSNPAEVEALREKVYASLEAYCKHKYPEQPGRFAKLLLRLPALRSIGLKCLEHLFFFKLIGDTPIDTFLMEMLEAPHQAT"}},
  "data": [
    {"molecule": "Drosophila melanogaster EcR with a modified DNABD fused to VP16AD (DmVgRXR system, Invitrogen) (receptor)", "values": [
      {"measurement": "Mean Fold Activation Through N-(2-ethyl-3-methoxybenzoyl)-N'-(3,5-dimethylbenzoyl)-N'-t-butylhydrazine; pIND(SP1)LacZ reporter, 3T3 cells", "setting": "[1]", "result": 21, "unit": "fold"},
      {"measurement": "Mean Fold Activation Through N-(2-ethyl-3-methoxybenzoyl)-N'-(3,5-dimethylbenzoyl)-N'-t-butylhydrazine; pIND(SP1)LacZ reporter, 293 cells", "setting": "[1]", "result": 21, "unit": "fold"},
      {"measurement": "Mean Fold Activation with 50 µM N-(2-ethyl-3-methoxybenzoyl)-N'-(3,5-dimethylbenzoyl)-N'-t-butylhydrazine; pIND(SP1)LacZ reporter, CHO cells", "setting": "[1]", "result": 14, "unit": "fold"}
    ]},
    {"molecule": "Gal4DBD-CfEcRDEF chimeric polypeptide (receptor)", "values": [
      {"measurement": "Mean Fold Activation Through N-(2-ethyl-3-methoxybenzoyl)-N'-(3,5-dimethylbenzoyl)-N'-t-butylhydrazine; pGAL4RELuc reporter, 3T3 cells", "setting": "[2]", "result": 1120, "unit": "fold"},
      {"measurement": "Mean Fold Activation Through N-(2-ethyl-3-methoxybenzoyl)-N'-(3,5-dimethylbenzoyl)-N'-t-butylhydrazine; pGAL4RELuc reporter, 293 cells", "setting": "[2]", "result": 125, "unit": "fold"},
      {"measurement": "Mean Fold Activation with 50 µM N-(2-ethyl-3-methoxybenzoyl)-N'-(3,5-dimethylbenzoyl)-N'-t-butylhydrazine; pGAL4RELuc reporter, CHO cells", "setting": "[2]", "result": 267, "unit": "fold"},
      {"measurement": "Mean Fold Induction at 1.0 µM Concentration of Muristerone A; switch 1.1 in 3T3 cells", "setting": "[2]", "result": 1, "unit": "fold"},
      {"measurement": "Mean Fold Induction at 1.0 µM Concentration of N'-(3,4-(1,2-ethylenedioxy)-2-methylbenzoyl)-N'-(3,5-dimethylbenzoyl)-N'-tert-butylhydrazine; switch 1.1 in 3T3 cells", "setting": "[2]", "result": 601, "unit": "fold"},
      {"measurement": "Mean Fold Induction at 1.0 µM Concentration of N-(2-ethyl-3-methoxybenzoyl)-N'-(3,5-dimethylbenzoyl)-N'-tert-butylhydrazine; switch 1.1 in 3T3 cells", "setting": "[2]", "result": 116, "unit": "fold"},
      {"measurement": "Mean Fold Induction at 1.0 µM Concentration of Ponasterone A; switch 1.1 in 3T3 cells", "setting": "[2]", "result": 1, "unit": "fold"},
      {"measurement": "ligand concentration at which transactivation was initiated (non-steroid ligands)", "setting": "[2]", "result": "< 1", "unit": "µM"},
      {"measurement": "ligand concentration at which transactivation was initiated (steroid ligands)", "setting": "[2]", "result": 50, "unit": "µM"},
      {"measurement": "Mean Fold Activation Through N-(2-ethyl-3-methoxybenzoyl)-N'-(3,5-dimethylbenzoyl)-N'-t-butylhydrazine; pGAL4RELuc reporter, 3T3 cells", "setting": "[3]", "result": 2, "unit": "fold"},
      {"measurement": "Mean Fold Activation Through N-(2-ethyl-3-methoxybenzoyl)-N'-(3,5-dimethylbenzoyl)-N'-t-butylhydrazine; pGAL4RELuc reporter, 293 cells", "setting": "[3]", "result": 2, "unit": "fold"},
      {"measurement": "Mean Fold Activation with 50 µM N-(2-ethyl-3-methoxybenzoyl)-N'-(3,5-dimethylbenzoyl)-N'-t-butylhydrazine; pGAL4RELuc reporter, CHO cells", "setting": "[3]", "result": 2, "unit": "fold"}
    ]},
    {"molecule": "Gal4DBD-CfUSPDEF chimeric polypeptide (receptor)", "values": [
      {"measurement": "Mean Fold Activation Through N-(2-ethyl-3-methoxybenzoyl)-N'-(3,5-dimethylbenzoyl)-N'-t-butylhydrazine; pGAL4RELuc reporter, 3T3 cells", "setting": "[4]", "result": 3, "unit": "fold"},
      {"measurement": "Mean Fold Activation Through N-(2-ethyl-3-methoxybenzoyl)-N'-(3,5-dimethylbenzoyl)-N'-t-butylhydrazine; pGAL4RELuc reporter, 293 cells", "setting": "[4]", "result": 2, "unit": "fold"},
      {"measurement": "Mean Fold Activation with 50 µM N-(2-ethyl-3-methoxybenzoyl)-N'-(3,5-dimethylbenzoyl)-N'-t-butylhydrazine; pGAL4RELuc reporter, CHO cells", "setting": "[4]", "result": 2, "unit": "fold"}
    ]},
    {"molecule": "Gal4DBD-MmRXRDEF chimeric polypeptide (receptor)", "values": [
      {"measurement": "Mean Fold Activation Through N-(2-ethyl-3-methoxybenzoyl)-N'-(3,5-dimethylbenzoyl)-N'-t-butylhydrazine; pGAL4RELuc reporter, 3T3 cells", "setting": "[5]", "result": 269, "unit": "fold"},
      {"measurement": "Mean Fold Activation Through N-(2-ethyl-3-methoxybenzoyl)-N'-(3,5-dimethylbenzoyl)-N'-t-butylhydrazine; pGAL4RELuc reporter, 293 cells", "setting": "[5]", "result": 3, "unit": "fold"},
      {"measurement": "Mean Fold Activation with 50 µM N-(2-ethyl-3-methoxybenzoyl)-N'-(3,5-dimethylbenzoyl)-N'-t-butylhydrazine; pGAL4RELuc reporter, CHO cells", "setting": "[5]", "result": 312, "unit": "fold"},
      {"measurement": "Mean Fold Activation Through N-(2-ethyl-3-methoxybenzoyl)-N'-(3,5-dimethylbenzoyl)-N'-t-butylhydrazine; pGAL4RELuc reporter, 3T3 cells", "setting": "[4]", "result": 47, "unit": "fold"},
      {"measurement": "Mean Fold Activation Through N-(2-ethyl-3-methoxybenzoyl)-N'-(3,5-dimethylbenzoyl)-N'-t-butylhydrazine; pGAL4RELuc reporter, 293 cells", "setting": "[4]", "result": 17, "unit": "fold"},
      {"measurement": "Mean Fold Activation with 50 µM N-(2-ethyl-3-methoxybenzoyl)-N'-(3,5-dimethylbenzoyl)-N'-t-butylhydrazine; pGAL4RELuc reporter, CHO cells", "setting": "[4]", "result": 85, "unit": "fold"},
      {"measurement": "Mean Fold Induction at 1.0 µM Concentration of Muristerone A; switch 1.3 in 3T3 cells", "setting": "[4]", "result": 1, "unit": "fold"},
      {"measurement": "Mean Fold Induction at 1.0 µM Concentration of N'-(3,4-(1,2-ethylenedioxy)-2-methylbenzoyl)-N'-(3,5-dimethylbenzoyl)-N'-tert-butylhydrazine; switch 1.3 in 3T3 cells", "setting": "[4]", "result": 54, "unit": "fold"},
      {"measurement": "Mean Fold Induction at 1.0 µM Concentration of N-(2-ethyl-3-methoxybenzoyl)-N'-3,5-dimethylbenzoyl)-N'-tert-butylhydrazine; switch 1.3 in 3T3 cells", "setting": "[4]", "result": 71, "unit": "fold"},
      {"measurement": "Mean Fold Induction at 1.0 µM Concentration of Ponasterone A; switch 1.3 in 3T3 cells", "setting": "[4]", "result": 1, "unit": "fold"}
    ]},
    {"molecule": "Truncated CfEcR comprising a partial A/B domain and the complete CDEF domains, fused to VP16AD (CfVgRXR) (receptor)", "values": [
      {"measurement": "Mean Fold Activation Through N-(2-ethyl-3-methoxybenzoyl)-N'-(3,5-dimethylbenzoyl)-N'-t-butylhydrazine; pIND(SP1)LacZ reporter, 3T3 cells", "setting": "[1]", "result": 19, "unit": "fold"},
      {"measurement": "Mean Fold Activation Through N-(2-ethyl-3-methoxybenzoyl)-N'-(3,5-dimethylbenzoyl)-N'-t-butylhydrazine; pIND(SP1)LacZ reporter, 293 cells", "setting": "[1]", "result": 12, "unit": "fold"},
      {"measurement": "Mean Fold Activation with 50 µM N-(2-ethyl-3-methoxybenzoyl)-N'-(3,5-dimethylbenzoyl)-N'-t-butylhydrazine; pIND(SP1)LacZ reporter, CHO cells", "setting": "[1]", "result": 27, "unit": "fold"}
    ]},
    {"molecule": "LexA:CfEcRDEF fusion (receptor) MKALTARQQEVFDLIRDHISQTGMPPTRAEIAQRLGFRSPNAAEEHLKALARKGVIEIVSGASRGIRLLQEEEEGLPLVGRVAAGEPLLAQQHIEGHYQVDPSLFKPNADFLLRVSGMSMKDIGIMDGDLLAVHKTQDVRNGQVVVARIDDEVTVKRLKKQGNKVELLPENSEFKPIVVDLRQQSFTIEGLAVGVIRNGDWLPECVVPETQCAMKRKEKKAQKEKDKLPVSTTTVDDHMPPIMQCEPPPPEAARIHEVVPRFLSDKLLETNRQKNIPQLTANQQFLIARLIWYQDGYEQPSDEDLKRITQTWQQADDENEESDTPFRQITEMTILTVQLIVEFAKGLPGFAKISQPDQITLLKACSSEVMMLRVARRYDAASDSVLFANNQAYTRDNYRKAGMAYVIEDLLHFCRCMYSMALDNIHYALLTAVVIFSDRPGLEQPQLVEEIQRYYLNTLRIYILNQLSGSARSSVIYGKILSILSELRTLGMQNSNMCISLKLKNRKLPPFLEEIWDVADMSHTQPPPILESPTNL", "values": [
      {"measurement": "fold induction of the LacZ reporter in a yeast two-hybrid assay with GS-E", "setting": "[6]", "result": 1800, "unit": "fold"}
    ]}
  ]
}
